Molecular target: T1, MHC class II‐associated invariant chain γ (CD74), endogenous in MDA‐MB‐231 cells (human (endogenous in MDA‐MB‐231), UniProt P04233 1-296)
T1 sequence (looked up): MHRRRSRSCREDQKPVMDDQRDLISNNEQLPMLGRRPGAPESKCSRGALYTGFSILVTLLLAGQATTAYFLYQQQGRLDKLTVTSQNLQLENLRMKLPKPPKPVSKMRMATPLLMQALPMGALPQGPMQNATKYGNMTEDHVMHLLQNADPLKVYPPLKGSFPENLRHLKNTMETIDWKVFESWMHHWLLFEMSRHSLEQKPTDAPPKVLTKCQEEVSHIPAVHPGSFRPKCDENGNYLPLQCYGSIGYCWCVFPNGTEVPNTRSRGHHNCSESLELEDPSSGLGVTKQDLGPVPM
Test: cell-based or functional assay

B1: his6‐tagged human recombinant TIMP‐1 protein (rTIMP‐1) (natural protein)
chain: not shown
modifications: extensively glycosylated
- P‐Akt (Ser473)/Akt ratio in MDA‐MB‐231 cells after 10 and 30 min of rTIMP‐1, normalised to 0 min (western blot): 2.3 P‐Akt/Akt ratio normalised to the 0 min sample

Reference: publication PMC10399710, “The invariant chain CD74 protein is a cell surface binding partner of TIMP‐1 in breast cancer cells” (Molecular Oncology, 2023)
